According to the supplement of paper PMC10724198:
± gives the standard deviation of the averaged measurements.

Tested on: Saccharomyces cerevisiae
Experiment: protein stability index of tFT-peptide fusion (C-terminal peptide) (PSI (0-1 scale)); higher = more stable (slower turnover)
Conditions: temperature: 30 C
Procedure: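 MPS profiling in S. cerevisiae of the yeast C-terminome library: the last 12 aa of each annotated ORF are fused to the C-terminus of a sfGFP-mCherry timer, after a GGGS linker. Cells are FACS-sorted into 8 mCherry/sfGFP bins and deep-sequenced. PSI runs from 0 (unstable) to 1 (stable); wild type and das1Δ backgrounds, two technical replicates each.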

[1] = genetic background: das1 deletion

Sequence | protein stability index [1] | protein stability index (genetic background: wild type)
RVKSLKVGRKSQ [PAL1 C-terminal 12 aa] | 0.688 ± 0.02 | 0.684 ± 0.0082
QKRIQRKKMNEM [AIM23 C-terminal 12 aa] | 0.71243 ± 0.0002 | 0.663 ± 0.014
MDTLEEMFTEEP [PRP42 C-terminal 12 aa] | 0.726 ± 0.027 | 0.7107 ± 0.0067
QIIYYIARSKGL [MEC3 C-terminal 12 aa] | 0.665 ± 0.058 | 0.668 ± 0.035
LASKHSQYTSPQ [RGT2 C-terminal 12 aa] | 0.72 ± 0.0086 | 0.662 ± 0.014
AGALAAVAAMLL [TIR4 C-terminal 12 aa] | 0.707 ± 0.037 | 0.679 ± 0.024
TKPNNGLNITNY [MTL1 C-terminal 12 aa] | 0.689 ± 0.019 | 0.716 ± 0.046
AREQLYEKLEQA [MIC27 C-terminal 12 aa] | 0.697 ± 0.007 | 0.6716 ± 0.0039
SGSRVVRKLFEL [FUS2 C-terminal 12 aa] | 0.6964 ± 0.0031 | 0.7 ± 0.016
TGFFGKLKKLFK [CRP1 C-terminal 12 aa] | 0.762 ± 0.0086 | 0.724 ± 0.0086
QSQYPDVGIPAI [YAR023C C-terminal 12 aa] | 0.7082 ± 0.0034 | 0.669 ± 0.011
RFYFLSIFKYII [YBR191W-A C-terminal 12 aa] | 0.633 ± 0.023 | 0.331 ± 0.02
ILRQYFTDLASS [REA1 C-terminal 12 aa] | 0.675 ± 0.026 | 0.696 ± 0.041
QSILACCQESNK [LCB1 C-terminal 12 aa] | 0.702 ± 0.0093 | 0.645 ± 0.0071
MIVRFFKKVTFR [CHS1 C-terminal 12 aa] | 0.7384 ± 0.0049 | 0.705 ± 0.008
VPLGPKPDISRL [GTO1 C-terminal 12 aa] | 0.7047 ± 0.0045 | 0.712 ± 0.041
KASNGHIELIGE [CRF1 C-terminal 12 aa] | 0.674 ± 0.002 | 0.699 ± 0.034
FSSFKFLDTSYL [CKI1 C-terminal 12 aa] | 0.748 ± 0.0096 | 0.697 ± 0.048
LNNIKTIIEGPE [XYL2 C-terminal 12 aa] | 0.676 ± 0.058 | 0.716 ± 0.054
EKMKKNQSIGWF [MRPL25 C-terminal 12 aa] | 0.756 ± 0.02 | 0.73159 ± 0.00064
RKNNKKSISYYG [YOR203W C-terminal 12 aa] | 0.706 ± 0.011 | 0.731 ± 0.0063

Sequence | protein stability index [1] | protein stability index (genetic background: wild type)
VEKDLVSVGSTW [NAR1 C-terminal 12 aa] | 0.676 ± 0.0024 | 0.7073 ± 0.0067
SKFTGRKRRHRF [BUD23 C-terminal 12 aa] | 0.67693 ± 0.00035 | 0.711 ± 0.05
EKSSVKRPCVKK [RKM4 C-terminal 12 aa] | 0.674 ± 0.02 | 0.701 ± 0.0034
LESADKKKDVKA [DUS1 C-terminal 12 aa] | 0.692 ± 0.0088 | 0.713 ± 0.015
TLIAAGIIRTGR [STI1 C-terminal 12 aa] | 0.727 ± 0.025 | 0.702 ± 0.016
RGRIAAQKRISA [RPL17B C-terminal 12 aa] | 0.681 ± 0.014 | 0.663 ± 0.016
FLDKNKKEQSDS [ECM9 C-terminal 12 aa] | 0.678 ± 0.029 | 0.771 ± 0.08
FLLTASRGIAQF [YBR116C C-terminal 12 aa] | 0.6752 ± 0.0048 | 0.74 ± 0.088
DSVEMKFDKLNI [RBS1 C-terminal 12 aa] | 0.6821 ± 0.0029 | 0.748 ± 0.085
KKKSQNKSRKDD [PBR1 C-terminal 12 aa] | 0.7005 ± 0.0067 | 0.691 ± 0.069
HQVERKAVDIVL [YPR096C C-terminal 12 aa] | 0.691 ± 0.016 | 0.712 ± 0.09
ELTDFKYPSNYE [PUT2 C-terminal 12 aa] | 0.6787 ± 0.0024 | 0.711 ± 0.066
WKLYQDYLSGKV [YER134C C-terminal 12 aa] | 0.695 ± 0.014 | 0.719 ± 0.08
GNNKKKRSVKRE [PBN1 C-terminal 12 aa] | 0.688 ± 0.013 | 0.717 ± 0.036
PEALIKSMTSKL [SPS19 C-terminal 12 aa] | 0.712 ± 0.038 | 0.725 ± 0.18
TKCSLKNSISLT [VAB2 C-terminal 12 aa] | 0.677 ± 0.012 | 0.733 ± 0.086
SSAASSQVPAST [PTK1 C-terminal 12 aa] | 0.694 ± 0.025 | 0.6743 ± 0.0022
KNFRNQYSLHPP [YHR095W C-terminal 12 aa] | 0.7047 ± 0.0045 | 0.6752 ± 0.0034
ICRVAIWSAERI [CAT5 C-terminal 12 aa] | 0.693 ± 0.015 | 0.658 ± 0.034
VTVLRNSQYFFS [RPO41 C-terminal 12 aa] | 0.741 ± 0.039 | 0.728 ± 0.018
